Data from publication PMC6225287 (2018).

Target: FGF-2 (Homo sapiens, UniProt P09038)
Test: SPR

Sequence of FGF-2 (P09038 143-288): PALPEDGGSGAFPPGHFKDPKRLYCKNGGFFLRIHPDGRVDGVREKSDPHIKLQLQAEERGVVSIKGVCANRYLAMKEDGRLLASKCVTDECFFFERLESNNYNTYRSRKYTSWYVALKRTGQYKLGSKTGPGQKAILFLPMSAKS

- Kd: 28 µM
Binder: QEDYDKDGIGDACDD [DD15 peptide (thrombospondin-1) type III repeats]
